Measurements reported in patent publication US20100291097A1.

Columns and labels:
Aβ1-42 peptide = experiment: cell-based or functional assay
[1] = target: Peptide 27 of the Aβ1-42 overlapping peptide library; experiment: peptide library ELISA, Ab 10 µg/ml
[2] = target: Peptide 5 of the Aβ1-42 overlapping peptide library; experiment: peptide library ELISA, Ab 10 µg/ml
[3] = target: Peptide 31 of the Aβ1-42 overlapping peptide library; experiment: peptide library ELISA, Ab 10 µg/ml
[4] = target: Peptide 10 of the Aβ1-42 overlapping peptide library; experiment: peptide library ELISA, Ab 10 µg/ml
[5] = target: Peptide 28 of the Aβ1-42 overlapping peptide library; experiment: peptide library ELISA, Ab 10 µg/ml
[6] = target: Peptide 20 of the Aβ1-42 overlapping peptide library; experiment: peptide library ELISA, Ab 10 µg/ml
[7] = target: Peptide 24 of the Aβ1-42 overlapping peptide library; experiment: peptide library ELISA, Ab 10 µg/ml
[8] = target: Peptide 7 of the Aβ1-42 overlapping peptide library; experiment: peptide library ELISA, Ab 10 µg/ml
[9] = target: Peptide 16 of the Aβ1-42 overlapping peptide library; experiment: peptide library ELISA, Ab 10 µg/ml
[10] = target: Peptide 23 of the Aβ1-42 overlapping peptide library; experiment: peptide library ELISA, Ab 10 µg/ml
[11] = target: Peptide 1 of the Aβ1-42 overlapping peptide library; experiment: peptide library ELISA, Ab 10 µg/ml
[12] = target: Peptide 33 of the Aβ1-42 overlapping peptide library; experiment: peptide library ELISA, Ab 10 µg/ml
[13] = target: Peptide 18 of the Aβ1-42 overlapping peptide library; experiment: peptide library ELISA, Ab 10 µg/ml
[14] = target: Peptide 9 of the Aβ1-42 overlapping peptide library; experiment: peptide library ELISA, Ab 10 µg/ml
[15] = target: Peptide 8 of the Aβ1-42 overlapping peptide library; experiment: peptide library ELISA, Ab 10 µg/ml
[16] = target: Peptide 3 of the Aβ1-42 overlapping peptide library; experiment: peptide library ELISA, Ab 10 µg/ml
[17] = target: Peptide 29 of the Aβ1-42 overlapping peptide library; experiment: peptide library ELISA, Ab 10 µg/ml
[18] = target: Peptide 11 of the Aβ1-42 overlapping peptide library; experiment: peptide library ELISA, Ab 10 µg/ml
[19] = target: Peptide 12 of the Aβ1-42 overlapping peptide library; experiment: peptide library ELISA, Ab 10 µg/ml
[20] = target: Peptide 6 of the Aβ1-42 overlapping peptide library; experiment: peptide library ELISA, Ab 10 µg/ml
[21] = target: Peptide 25 of the Aβ1-42 overlapping peptide library; experiment: peptide library ELISA, Ab 10 µg/ml
[22] = target: Peptide 13 of the Aβ1-42 overlapping peptide library; experiment: peptide library ELISA, Ab 10 µg/ml
[23] = target: Peptide 22 of the Aβ1-42 overlapping peptide library; experiment: peptide library ELISA, Ab 10 µg/ml
[24] = target: Peptide 26 of the Aβ1-42 overlapping peptide library; experiment: peptide library ELISA, Ab 10 µg/ml
[25] = target: Peptide 30 of the Aβ1-42 overlapping peptide library; experiment: peptide library ELISA, Ab 10 µg/ml
[26] = target: Peptide 4 of the Aβ1-42 overlapping peptide library; experiment: peptide library ELISA, Ab 10 µg/ml
[27] = target: Peptide 19 of the Aβ1-42 overlapping peptide library; experiment: peptide library ELISA, Ab 10 µg/ml
[28] = target: Peptide 15 of the Aβ1-42 overlapping peptide library; experiment: peptide library ELISA, Ab 10 µg/ml
[29] = target: Peptide 32 of the Aβ1-42 overlapping peptide library; experiment: peptide library ELISA, Ab 10 µg/ml
[30] = target: Peptide 21 of the Aβ1-42 overlapping peptide library; experiment: peptide library ELISA, Ab 10 µg/ml
[31] = target: Peptide 14 of the Aβ1-42 overlapping peptide library; experiment: peptide library ELISA, Ab 10 µg/ml
[32] = target: Peptide 17 of the Aβ1-42 overlapping peptide library; experiment: peptide library ELISA, Ab 10 µg/ml
[33] = target: Peptide 2 of the Aβ1-42 overlapping peptide library; experiment: peptide library ELISA, Ab 10 µg/ml
[34] = target: Aβ1-28 peptide, biotinylated (Anaspec); experiment: ELISA, biotin-peptide on streptavidin, Ab 10 µg/ml; mean of 2, background subtracted; settings: remark: other sources report otherwise
Chain of Aβ1-28 peptide, biotinylated (Anaspec) (chain, as listed by the source): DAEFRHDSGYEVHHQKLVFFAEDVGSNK

Chain of Aβ1-42 peptide (peptide, as listed by the source): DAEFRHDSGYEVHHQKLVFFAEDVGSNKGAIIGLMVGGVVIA

B1: ACI-24-Ab-3 monoclonal antibody (antibody, IgG1, V domains shown)
VH: QVQLQQSGAELARPGASVKLSCKASGYTFTSYGIRWVKQRTGQGLEWIGEICPRSGNTYYNEKFKGKATVTADKSSSTAYMELRSLTSEDSAVYFCARSIYYGRPYYFDYWGQGTTLTVSS
VL: DIVMTQSQLFMSTSVGDRVSVTCKASQNVATNVAWYQQKPGQSPKALIYSASYRYSGVPDRFTGSGSGTDFTLTISNVQSEDLAEYFCQQYNSYPLTFGAGTKLELK
In the case of B1, the disaggregation of pre-aggregated Aβ1-42, thioflavin T assay, molar ratio 1:10 (Aβ1-42 peptide) is reported as 20%, the disaggregation of pre-aggregated Aβ1-42, thioflavin T assay, molar ratio 1:100 (Aβ1-42 peptide) is reported as 12% and the inhibition of Aβ1-42 aggregation, thioflavin T assay, antibody to Aβ1-42 molar ratio 1:10 (Aβ1-42 peptide) is reported as 51%. The inhibition of Aβ1-42 aggregation, thioflavin T assay, antibody to Aβ1-42 molar ratio 1:100 (Aβ1-42 peptide) was 26%, the O.D. [1] was 0.26 O.D and the O.D. [2] was 0.32 O.D. It also gave an O.D. [3] of 0.31 O.D, an O.D. [4] of 0.2 O.D and an O.D. [5] of 0.26 O.D. It also gave an O.D. [6] of 0.22 O.D, an O.D. [7] of 0.18 O.D and an O.D. [8] of 0.3 O.D. It also gave an O.D. [9] of 0.34 O.D, an O.D. [10] of 0.2 O.D and an O.D. [11] of 0.32 O.D. For the same binder, the O.D. [12] was 0.26 O.D, the O.D. [13] was 0.3 O.D and the O.D. [14] was 0.19 O.D. It also gave an O.D. [15] of 0.21 O.D, an O.D. [16] of 0.37 O.D and an O.D. [17] of 0.27 O.D. It also gave an O.D. [18] of 0.23 O.D, an O.D. [19] of 0.34 O.D and an O.D. [20] of 0.34 O.D. It also gave an O.D. [21] of 0.23 O.D, an O.D. [22] of 0.23 O.D and an O.D. [23] of 0.21 O.D. For the same binder, the O.D. [24] was 0.25 O.D, the O.D. [25] was 0.29 O.D and the O.D. [26] was 0.36 O.D. For the same binder, the O.D. [27] was 0.3 O.D, the O.D. [28] was 0.32 O.D and the O.D. [29] was 0.31 O.D. It also gave an O.D. [30] of 0.21 O.D, an O.D. [31] of 0.3 O.D and an O.D. [32] of 0.31 O.D. For the same binder, the O.D. [33] was 0.26 O.D.

B2: ACI-11-Ab-9 monoclonal antibody (antibody, V domains shown)
VL: QAVVTQESALTTSPGGTVILTCRSSTGAVTTSNYANWVQEKPDHLFTGLIGGTSNRAPGVPVRFSGSLIGDKAALTITGAQTEDDAMYFCALWYSTHYVFGGGTKVTVL
VH: QVQLQQSDAELVKPGASVKISCKVSGYTFTDHTIHWMKQRPEQGLEWIGYIYPRDGSTKYNEKFKGKATLTADKSSSTAYMQLNSLTSEDSAVYFCARDYGYAFDYWGQGTTLTVSS
modifications: here or on the partner: biotinylated (position not given)
Binder B2 has an O.D. [34] of 0.53 O.D.
